Data reported in US7887851B2, “Aromatase activator” (Kao Corporation, priority 2004, dated 2011).

Key:
[1] = test system: transcription control region for exon 1b of human aromatase gene; test: Luciferase reporter assay, Ex1b-luc in HepG2 cell (expression of exon 1b of aromatase gene); format: cell-based; conditions: 20 hours
Method: The region containing transcription control region for exon 1b of human aromatase gene and a part of the exon 1b was amplified by PCR from genomic DNA extracted from human normal keratinocyte by using the following primers: […]
The resulting PCR product was treated with restriction enzymes SpeI and EcoRI, and incorporated in SpeI site and EcoRI site in SeaPansy null Control Vector (Toyo Ink Mfg. Co., Ltd.) to produce Ex1b-luc plasmid. This plasmid was used in the luciferase assay as will be described below.
Immortalized human hepatoma-derived cell (HepG2 cell) […]
The transfected cells were cultivated overnight, and plant extract prepared in Production Example 1, Table 2, or yeast extract (“YeastLiquid B”, Ichimaru Pharcos Co Ltd.), silk protein extract (“Silkgen G Soluble KE”, Ichimaru Pharcos Co Ltd.), milk protein (“Bioderma SX-14” Ichimaru Pharcos Co Ltd.), “lactoferrin S FREE”, Ichimaru Pharcos Co Ltd.), natto extract (“Soybean polymer F B-20”, Ichimaru Pharcos Co Ltd.), or royal jelly (“royal jelly extract”, Ichimaru Pharcos Co Ltd.) was added (1% or 0.1%), and the cultivation was continued for another 20 hours. After adding 20 μL of alamarBlue (BIOSOURCE), fluorescence intensity (excitation light 544 nm, fluorescence 590 nm) was measured. Luciferase activity was also measured by using PicaGene Dual SeaPansy Luminescence kit (Nippon Gene). […]

HepG2 cell = test: alamarBlue fluorescence in Ex1b-luc transfected HepG2 cell; format: cell-based, human; conditions: 20 hours
Method: Immortalized human hepatoma-derived cell (HepG2 cell)
HepG2 cell was inoculated to 96 well culture plate at 30,000 cells per well, and Ex1b-luc was introduced using lipofectamine reagent (Invitrogen) according to the protocol described in the attached manual. The DNA was used at an amount of 0.1 μg per well. The same procedure was repeated for control without adding the DNA (2 wells).
The transfected cells were cultivated overnight, and plant extract prepared in Production Example 1, Table 2, or yeast extract (“YeastLiquid B”, Ichimaru Pharcos Co Ltd.), silk protein extract (“Silkgen G Soluble KE”, Ichimaru Pharcos Co Ltd.), milk protein (“Bioderma SX-14” Ichimaru Pharcos Co Ltd.), “lactoferrin S FREE”, Ichimaru Pharcos Co Ltd.), natto extract (“Soybean polymer F B-20”, Ichimaru Pharcos Co Ltd.), or royal jelly (“royal jelly extract”, Ichimaru Pharcos Co Ltd.) was added (1% or 0.1%), and the cultivation was continued for another 20 hours. After adding 20 μL of alamarBlue (BIOSOURCE), fluorescence intensity (excitation light 544 nm, fluorescence 590 nm) was measured. Luciferase activity was also measured by using PicaGene Dual SeaPansy Luminescence kit (Nippon Gene). The cells were lysed by adding 25 μL per well of the lysis buffer that had been diluted 5× lysis buffer to 1× concentration.

B1: Lactoferrin: milk protein; commercial product "Lactoferrin S FREE" (Ichimaru Pharcos) (protein, UniProt P24627 20-708, looked up)
Lactotransferrin: APRKNVRWCTISQPEWFKCRRWQWRMKKLGAPSITCVRRAFALECIRAIAEKKADAVTLDGGMVFEAGRDPYKLRPVAAEIYGTKESPQTHYYAVAVVKKGSNFQLDQLQGRKSCHTGLGRSAGWIIPMGILRPYLSWTESLEPLQGAVAKFFSASCVPCIDRQAYPNLCQLCKGEGENQCACSSREPYFGYSGAFKCLQDGAGDVAFVKETTVFENLPEKADRDQYELLCLNNSRAPVDAFKECHLAQVPSHAVVARSVDGKEDLIWKLLSKAQEKFGKNKSRSFQLFGSPPGQRDLLFKDSALGFLRIPSKVDSALYLGSRYLTTLKNLRETAEEVKARYTRVVWCAVGPEEQKKCQQWSQQSGQNVTCATASTTDDCIVLVLKGEADALNLDGGYIYTAGKCGLVPVLAENRKSSKHSSLDCVLRPTEGYLAVAVVKKANEGLTWNSLKDKKSCHTAVDRTAGWNIPMGLIVNQTGSCAFDEFFSQSCAPGADPKSRLCALCAGDDQGLDKCVPNSKEKYYGYTGAFRCLAEDVGDVAFVKNDTVWENTNGESTADWAKNLNREDFRLLCLDGTRKPVTEAQSCHLAVAPNHAVVSRSDRAAHVKQVLLHQQALFGKNGKNCPDKFCLFKSETKNLLFNDNTECLAKLGGRPTYEEYLGTEYVTAIANLKKCSTSPLLEACAFLTR
B1 showed a Luciferase activity ([1]; added at 0.1%) of 155.2%, a Luciferase activity ([1]; added at 1%) of 181.5% and an AlamarBlue activity (HepG2 cell; added at 0.1%) of 135.9%. It also gave an AlamarBlue activity (HepG2 cell; added at 1%) of 138.2%.
